Measured values taken from the PETadex activity labels (doi:10.1038/s41467-025-61599-z).

Legend:
[1] = Proxy for plastic degradation [UPLC/UHPLC]; details: pH 9
[2] = substrate: PET; test: Proxy for plastic degradation [Released monomer concentration (HPLC/LC-MS) (TPA+MHET)]
[3] = substrate: pNPB; test: Proxy for plastic degradation [Absorbance @ 430nm] (min⁻¹); details: pH 8; part of the chain shown
[4] = substrate: PET; test: Proxy for plastic degradation [Released monomer concentration (HPLC/LC-MS) (MHET+TPA)]; details: pH 9, part of the chain shown
[5] = substrate: PET; test: Proxy for plastic degradation [kcat/Km (catalytic efficiency)] (mM⁻¹s⁻¹); details: pH 8
[6] = Proxy for plastic degradation [Released monomer concentration (HPLC/LC-MS) (TPA+MHET)]

B1: unnamed (protein)
chain: MSHRFRLAAAVCVAAAILVPATPAAAADPWDAPGPYATAVQIGAVNTLYYPRDIASSPRRHPVIVWGNGTGAAPLVYRDLLLYWASHGFIVSAANTPASNLGISMRLGIDALAAADADPGSIFRGKVDLAHIGASGHSQGGAAAIVVGADPRIDAILPIQPGPLADIDDVHVPALLLAGQHDSIVFPFLVKAFYNDATHIPAIYAEVRGADHFTVVGDPGPFAAPTTAWFRFQLMGDTAARAEFYGPSCGICTDTRTWSDVRRNALVP
In the case of B1, the “Proxy for plastic degradation” value ([1]; 30 °C) is reported as 13 µM, the “Proxy for plastic degradation” value ([1]; 40 °C) is reported as 13.4 µM and the “Proxy for plastic degradation” value ([1]; 50 °C) is reported as 14.2 µM. For the same protein, the “Proxy for plastic degradation” value ([1]; 55 °C) was 13.4 µM and the “Proxy for plastic degradation” value ([1]; 60 °C) was 14.1 µM.

B2: unnamed (protein)
chain: MAVITPRRERSSLLSRALRFTAAAATALVTAVSLAAPAHAANPYERGPNPTDALLEARSGPFSVSEERASRFGADGFGGGTIYYPRENNTYGAVAISPGYTGTQASVAWLGKRIASHGFVVITIDTNTTLDQPDSRARQLNAALDYMINDASSAVRSRIDSSRLAVMGHSMGGGGSLRLASQRPDLKAAIPLTPWHLNKNWSSVRVPTLIIGADLDTIAPVLTHARPFYNSLPTSISKAYLELDGATHFAPNIPNKIIGKYSVAWLKRFVDNDTRYTQFLCPGPRDGLFGEVEEYRSTCPF
In the case of B2, the “Proxy for plastic degradation” value ([2]; 30 °C) is reported as 2.77 µM, the “Proxy for plastic degradation” value ([2]; 40 °C) is reported as 2.15 µM and the “Proxy for plastic degradation” value ([2]; 50 °C) is reported as 2.1 µM. The “Proxy for plastic degradation” value ([2]; 55 °C) was 2.23 µM and the “Proxy for plastic degradation” value ([2]; 60 °C) was 0 µM.

B3: unnamed (protein)
chain: MAVMTPRRERSSLLSRALQVTAAAATALVTAVSLAAPAHAANPYERGPNPTDALLEASSGPFSVSEENVSRLSASGFGGGTIYYPRENNTYGAVAISPGYTGTEASIAWLGERIASHGFVVITIDTITTLDQPDSRAEQLNAALNHMINRASSTVRSRIDSSRLAVMGHSMGGGGTLRLASQRPDLKAAIPLTPWHLNKNWSSVTVPTLIIGADLDTIAPVATHAKPFYNSLPSSISKAYLELDGATHFAPNIPNKIIGKYSVAWLKRFVDNDTRYTQFLCPGPRDGLFGEVEEYRSTCPF
For B3, the “Proxy for plastic degradation” value ([2]; 30 °C) was 7.78 µM, the “Proxy for plastic degradation” value ([2]; 40 °C) was 26.7 µM and the “Proxy for plastic degradation” value ([2]; 50 °C) was 124 µM. The “Proxy for plastic degradation” value ([2]; 55 °C) was 850 µM and the “Proxy for plastic degradation” value ([2]; 60 °C) was 140 µM.

B4: unnamed (protein)
chain: APPDYGLPGSYPVAYSDVTAVAGGRSVPARVHYPATTSGTNQPVATGRFPVIA
For B4, the “Proxy for plastic degradation” value [3] was 13000, the “Proxy for plastic degradation” value ([4]; 30 °C) was 13 µM and the “Proxy for plastic degradation” value ([4]; 40 °C) was 18 µM. For the same protein, the “Proxy for plastic degradation” value ([4]; 50 °C) was 16.6 µM, the “Proxy for plastic degradation” value ([4]; 55 °C) was 16.2 µM and the “Proxy for plastic degradation” value ([4]; 60 °C) was 16.5 µM.

B5: unnamed (protein)
chain: MNFPRASRLMQAAVLGGLMAVSAAATAQTNPYARGPNPTAASLEASAGPFTVRSFTVSRPSGYGAGTVYYPTNAGGTVGAIAIVPGYTARQSSIKWWGPRLASHGFVVITIDTNSTLDQPSSRSSQQMAALRQVASLNGTSSSPIYGKVDTARMGVMGWSMGGGGSLISAANNPSLKAAAPQAPWDSSTNFSSVTVPTLIFACENDSIAPVNSSALPIYDSMSRNAKQFLEINGGSHSCANSGNSNQALIGKKGVAWMKRFMDNDTRYSTFACENPNSTRVSDFRTANCS
In the case of B5, the “Proxy for plastic degradation” value ([1]; 30 °C, part of the chain shown) is reported as 37.5 µM, the “Proxy for plastic degradation” value ([1]; 40 °C, part of the chain shown) is reported as 31.2 µM and the “Proxy for plastic degradation” value ([1]; 50 °C, part of the chain shown) is reported as 18 µM. The “Proxy for plastic degradation” value ([1]; 55 °C, part of the chain shown) was 15.4 µM, the “Proxy for plastic degradation” value ([1]; 60 °C, part of the chain shown) was 15.6 µM and the “Proxy for plastic degradation” value [3] was 18300. For the same protein, the “Proxy for plastic degradation” value ([2]; 30 °C, part of the chain shown) was 37.5 µM, the “Proxy for plastic degradation” value ([2]; 40 °C, part of the chain shown) was 31.2 µM and the “Proxy for plastic degradation” value ([2]; 50 °C, part of the chain shown) was 18 µM. The “Proxy for plastic degradation” value ([2]; 55 °C, part of the chain shown) was 15.6 µM, the “Proxy for plastic degradation” value ([2]; 60 °C, part of the chain shown) was 0 µM and the “Proxy for plastic degradation” value ([2]; pH 9, 30 °C, 24 h, part of the chain shown) was 70.2 µM. The “Proxy for plastic degradation” value ([2]; pH 9, 30 °C, 48 h, part of the chain shown) was 69.5 µM, the “Proxy for plastic degradation” value ([2]; pH 9, 30 °C, 72 h, part of the chain shown) was 15.4 µM and the “Proxy for plastic degradation” value ([4]; 30 °C) was 37.5 µM. For the same protein, the “Proxy for plastic degradation” value ([4]; 40 °C) was 31.2 µM, the “Proxy for plastic degradation” value ([4]; 50 °C) was 18 µM and the “Proxy for plastic degradation” value ([4]; 55 °C) was 15.4 µM. The “Proxy for plastic degradation” value ([4]; 60 °C) was 15.6 µM.

B6: unnamed (protein)
chain: MNFPRASRLMQAAVLGGLMAVSAAATAQTNPYARGPNPTAASLEASAGPFTVRSFTVSRPSGYGAGTVYYPTNAGGTVGAIAIVPGYTARQSSIKWWGPRLASHGFVVITIDTNSTLDQPESRSSQQMAALRQVASLNGTSSSPIYGKVDTARMGVMGWSMGGGGSLISAANNPSLKAAAPQAPWHSSTNFSSVTVPTLIFACENDSIAPVNSSALPIYDSMSQNAKQFLEIKGGSHSCANSGNSNQALIGKKGVAWMKRFMDNDTRYSTFACENPNSTAVSDFRTANCS
With B6 the “Proxy for plastic degradation” value [5] was 0.141, the “Proxy for plastic degradation” value ([6]; 30 °C) was 213 µM and the “Proxy for plastic degradation” value ([6]; 40 °C) was 272 µM. The “Proxy for plastic degradation” value ([6]; 50 °C) was 2110 µM and the “Proxy for plastic degradation” value ([6]; 60 °C) was 58 µM.

B7: unnamed (protein)
chain: MGGGGEDNVFAEPGDFDVVTEPGGRDCTIFRPEQLGDDHAVVIWGNGTGASPNTYAGLLRHYASHGFVVVAANTSNAGTGEDMLNCLDFLEGSQLASSVDFSKVGATGHSQGGGGAIMAGVDPRIATTAPIEGFTLGLGHDRDSHDQQNGPMLILSGSADRLVNPRTNHAPLFDATNVPAFWAIAQGAGHFEPVGDGGDFRGISTAWFLFQLEDDPEATTHFVGDDCFVCEDPGFDVEGVKEID
For B7, the “Proxy for plastic degradation” value ([1]; 30 °C) was 14 µM, the “Proxy for plastic degradation” value ([1]; 40 °C) was 13.8 µM and the “Proxy for plastic degradation” value ([1]; 50 °C) was 15.8 µM. For the same protein, the “Proxy for plastic degradation” value ([1]; 55 °C) was 14.4 µM and the “Proxy for plastic degradation” value ([1]; 60 °C) was 14.9 µM.
